Measured values from article PMC2837359 (Journal of molecular biology, 2009).

Target: the molecule itself
Assay: single particle electron microscopy

B1: galactose permease (GalP), H+/galactose symporter from E. coli, His6-tagged (natural protein, UniProt P0AEP1 1-464, looked up)
chain: MPDAKKQGRSNKAMTFFVCFLAALAGLLFGLDIGVIAGALPFIADEFQITSHTQEWVVSSMMFGAAVGAVGSGWLSFKLGRKKSLMIGAILFVAGSLFSAAAPNVEVLILSRVLLGLAVGVASYTAPLYLSEIAPEKIRGSMISMYQLMITIGILGAYLSDTAFSYTGAWRWMLGVIIIPAILLLIGVFFLPDSPRWFAAKRRFVDAERVLLRLRDTSAEAKRELDEIRESLQVKQSGWALFKENSNFRRAVFLGVLLQVMQQFTGMNVIMYYAPKIFELAGYTNTTEQMWGTVIVGLTNVLATFIAIGLVDRWGRKPTLTLGFLVMAAGMGVLGTMMHIGIHSPSAQYFAIAMLLMFIVGFAMSAGPLIWVLCSEIQPLKGRDFGITCSTATNWIANMIVGATFLTMLNTLGNANTFWVYAALNVLFILLTLWLVPETKHVSLEHIERNLMKGRKLREIGAHD
  stoichiometry N: 3
